Measurements: US20230043289A1

Each binder was assayed against Cynomolgus monkey Tau monomer (cynomolgus monkey) (assay: SPR 37C, hIgG captured, cyno Tau monomer 0.1-33.3 nM).
Cynomolgus monkey Tau monomer (cynomolgus monkey), sequence (P10636 other isoform, or with tags, fused parts or gaps): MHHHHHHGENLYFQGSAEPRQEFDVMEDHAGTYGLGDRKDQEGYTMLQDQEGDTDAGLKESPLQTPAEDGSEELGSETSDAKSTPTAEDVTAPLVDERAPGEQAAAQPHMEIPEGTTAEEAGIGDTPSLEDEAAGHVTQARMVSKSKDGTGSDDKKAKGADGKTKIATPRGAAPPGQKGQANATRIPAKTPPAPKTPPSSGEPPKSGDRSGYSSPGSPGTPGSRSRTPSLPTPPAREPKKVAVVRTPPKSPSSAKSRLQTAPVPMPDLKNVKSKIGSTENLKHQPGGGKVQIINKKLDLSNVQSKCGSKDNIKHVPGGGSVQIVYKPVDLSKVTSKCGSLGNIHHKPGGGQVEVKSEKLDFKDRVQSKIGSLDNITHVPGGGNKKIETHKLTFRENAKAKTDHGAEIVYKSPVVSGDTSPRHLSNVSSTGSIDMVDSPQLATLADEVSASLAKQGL

Row | Kd [pM] | koff [s⁻¹] | kon [M⁻¹ s⁻¹] | Binder
1 | 100 | 0.00114 | 9.27e+06 | hu37D3-H9.v76 (antibody, V domains shown) VH: EVQLVESGGGLVQPGGSLRLSCAASGLIFRSYGMSWVRQAPGKGLEWVATINSGGTRTYYPDSVKGRFTISRDNSKNTLYLQMNSLRAEDTAVYYCANSYSGAMDYWGQGTLVTVSS VL: DDLLTQTPLSLPVTPGQPASISCRSSQSIVHSNGNTYLEWYLQKPGQSPQLLIYKVSNRFSGVPDRFSGSGSGTDFTLKISRVEAEDVGVYYCFQGTLVPWTFGQGTKVEIK
2 | 100 | 0.00178 | 1.29e+07 | hu37D3-H9.v93 (antibody, V domains shown) VH: EVQLVESGGGLVQPGGSLRLSCAASGLIFRSYGMSWVRQAPGKGLEWVATINSGGTRTYYPDSVKGRFTISRDNSKNTLYLQMNSLRAEDTAVYYCANSYSGAMDYWGQGTLVTVSS VL: EDLLTQSPSSLSASVGDRVTITCRSSQSIVHSNGNTYLEWYQQKPGKSPKLLIYKVSNRFSGVPSRFSGSGSGTDFTLTISSLQPEDFATYYCFQGTLVPWTFGQGTKVEIK
3 | 100 | 0.00114 | 9.55e+06 | hu37D3-H9.v83 (antibody, V domains shown) VH: EVQLLESGGGLVQPGGSLRLSCAASGLIFRSYGMSWVRQAPGKGLEWVATINSGGTRTYYPDSVKGRFTISRDNSKNTLYLQMNSLRAEDTAVYYCANSYSGAMDYWGQGTLVTVSS VL: DDLLTQSPLSLPVTLGQPASISCRSSQSIVHSNGNTYLEWYQQRPGQSPRLLIYKVSNRFSGVPDRFSGSGSGTDFTLKISRVEAEDVGVYYCFQGTLVPWTFGQGTKVEIK
